In publication PMC4948871, “The Molecular Mechanism of Ethylene-Mediated Root Hair Development Induced by Phosphate Starvation”:

T1: GST-EIN3(141-352) (Arabidopsis thaliana, UniProt O24606 141-352)
T1 sequence: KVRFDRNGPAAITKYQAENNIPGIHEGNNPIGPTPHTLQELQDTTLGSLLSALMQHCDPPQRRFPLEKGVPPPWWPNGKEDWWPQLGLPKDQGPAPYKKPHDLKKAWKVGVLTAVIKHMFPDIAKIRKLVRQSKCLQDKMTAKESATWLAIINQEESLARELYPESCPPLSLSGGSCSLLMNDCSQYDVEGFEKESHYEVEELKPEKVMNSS

B1: EXT14-P2 (dsDNA)
DNA 1: TGCATATGAATTAACATGCATATGAATTAACATGCATATGAATTAACATGCATATGAATTAACA
DNA 2: TGTTAATTCATATGCATGTTAATTCATATGCATGTTAATTCATATGCATGTTAATTCATATGCA
B2: RHS19-P1 (dsDNA)
DNA 1: TCTGCACGAATGTCACTCTGCACGAATGTCACTCTGCACGAATGTCACTCTGCACGAATGTCAC
DNA 2: GTGACATTCGTGCAGAGTGACATTCGTGCAGAGTGACATTCGTGCAGAGTGACATTCGTGCAGA
B3: PRP1-P4 (dsDNA)
DNA 1: AACAGATGAACGACATAACAGATGAACGACATAACAGATGAACGACATAACAGATGAACGACAT
DNA 2: ATGTCGTTCATCTGTTATGTCGTTCATCTGTTATGTCGTTCATCTGTTATGTCGTTCATCTGTT
B4: RHS15-P2 (dsDNA)
DNA 1: GACAAATGAATTCGGAGACAAATGAATTCGGAGACAAATGAATTCGGAGACAAATGAATTCGGA
DNA 2: TCCGAATTCATTTGTCTCCGAATTCATTTGTCTCCGAATTCATTTGTCTCCGAATTCATTTGTC

Each binder was assayed against T1, GST-EIN3(141-352) (assay: EMSA; competed by 500x unlabelled probe; 25 mM HEPES-KOH pH 7.5, 100 mM KCl, 0.1 mM EDTA, 10% glycerol, 1 mM DTT, 1 ug poly(dI-dC), 0.1 ug protein in 20 uL, room temperature 30 min; 5.5% PAGE in 0.5x TBE). Details: protein: recombinant; tags: GST (pGEX-6p-1); chain copies: 2; label: biotin; blunt.

| Binder | binding result |
| --- | --- |
| B1 | binds |
| B2 | binds |
| B3 | binds |
| B4 | binds |
